Results on 2 proteins are retold here after PMC3524233, “Disulfide Bonds within the C2 Domain of RAGE Play Key Roles in Its Dimerization and Biogenesis” (PLoS ONE, 2012).

In general, stoichiometry N refers to a count of units in the complex or per binding partner.

Data set [1] concerns the molecule itself. The data set can be described thus: non-reducing SDS-PAGE with immunoblot; crude membrane fraction of mouse lung (homogenised with 20 mM N-ethylmaleimide), 15 µg, 4-12% gradient gel, reducing and non-reducing, IB with anti-RAGE; RAGE knockout lung as control. Background: Immunoblotting shows a protein as a band on a membrane.
Data set [2] deals with the molecule itself. Description: non-reducing SDS-PAGE with immunoblot; membrane extracts of transfected CHO-CD14 cells; DTT omitted from the loading buffer, 2% LDS, 80°C for 10 min, NuPAGE 4-12% Bis-Tris gel.

B1: canonical full-length RAGE from mouse lung (receptor, mouse (endogenous in lung), UniProt Q62151 23-402, looked up)
chain: GQNITARIGEPLVLSCKGAPKKPPQQLEWKLNTGRTEAWKVLSPQGGPWDSVARILPNGSLLLPATGIVDEGTFRCRATNRRGKEVKSNYRVRVYQIPGKPEIVDPASELTASVPNKVGTCVSEGSYPAGTLSWHLDGKLLIPDGKETLVKEETRRHPETGLFTLRSELTVIPTQGGTHPTFSCSFSLGLPRRRPLNTAPIQLRVREPGPPEGIQLLVEPEGGIVAPGGTVTLTCAISAQPPPQVHWIKDGAPLPLAPSPVLLLPEVGHEDEGTYSCVATHPSHGPQESPPVSIRVTETGDEGPAEGSVGESGLGTLALALGILGGLGVVALLVGAILWRKRQPRREERKAPESQEDEEERAELNQSEEAEMPENGAGGP
notes: mouse RAGE, the canonical full-length isoform of lung tissue; source: endogenous, crude membrane fraction of wild-type (C57BL/6) mouse lung
On to B1, for which the “stoichiometry N” value in data set [1] was 2.

B2: RAGE C2 domain-only fragment (residues 235-404) (domain or fragment, UniProt Q15109 235-404, looked up)
chain: LEEVQLVVEPEGGAVAPGGTVTLTCEVPAQPSPQIHWMKDGVPLPLPPSPVLILPEIGPQDQGTYSCVATHSSHGPQESRAVSISIIEPGEEGPTAGSVGGSGLGTLALALGILGGLGTAALLIGVILWQRRQRRGEERKAPENQEEEEERAELNQSEEPEAGESSTGGP
notes: RAGE C2 domain-only fragment, residues 235-404 (C2 domain with the transmembrane helix and the cytosolic portion); also called C2 fragment; source: CHO-CD14, transfected, expressed on the cell surface, in membrane extracts
Consider B2, for which the “stoichiometry N” value in data set [2] was 2.
